Our source for the protein stability index values is the supplement of paper PMC10724198.

± gives the standard deviation of the averaged measurements.

The subject of series [1] is Saccharomyces cerevisiae. Nature of the series: protein stability index of tFT-peptide fusion (C-terminal peptide) (PSI (0-1 scale)); higher = more stable (slower turnover). The method, then:
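MPS profiling in S. cerevisiae of the tFT-X12 degron library: putative degron peptides plus stable controls, 12 aa, fused to the C-terminus of a sfGFP-mCherry timer. Cells are FACS-sorted into 8 mCherry/sfGFP bins and deep-sequenced. PSI runs from 0 (unstable) to 1 (stable). Backgrounds are wild type, das1Δ and doa10Δ at 30 °C, and wild type, das1Δ, cdc34-1 and cdc53-1 at 37 °C; 2-3 technical replicates each.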

Series [2] deals with Saccharomyces cerevisiae. The series is described as above. As to conditions: genetic background: wild type; temperature: 30 C.
Setting [3] is: genetic background: cdc34-1, temperature: 37 C.
The mark [4] stands for this setting: genetic background: cdc53-1, temperature: 37 C.
Setting [5] is: genetic background: das1 deletion, temperature: 30 C.
The mark [6] stands for this setting: genetic background: das1 deletion, temperature: 37 C.
Setting [7] is: genetic background: doa10 deletion, temperature: 30 C.
[8] abbreviates: genetic background: wild type, temperature: 30 C.
Setting [9] is: genetic background: wild type, temperature: 37 C.
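Also: PSI is a weighted mean of sequencing reads over stability bins, variants kept only with over 10 reads, mCherry proximal and sfGFP distal, peptide attached via GGGS linker.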

For AALFNYVVCFCA, the protein stability index in the series with Saccharomyces cerevisiae [1] (setting [3]) was 0.474 ± 0.059; with Saccharomyces cerevisiae [1] (setting [4]), 0.537 ± 0.035; in the series with Saccharomyces cerevisiae [1] (setting [5]), 0.377 ± 0.025; in the series with Saccharomyces cerevisiae [1] (setting [6]), 0.512 ± 0.013; in the series on Saccharomyces cerevisiae [1] (setting [7]), 0.301 ± 0.0065; in the series on Saccharomyces cerevisiae [1] (setting [8]), 0.323 ± 0.015. The protein stability index with Saccharomyces cerevisiae [1] (setting [9]) came out at 0.436 ± 0.025; with Saccharomyces cerevisiae [2], 0.358 ± 0.0079.
In the case of AASRVIYLLNLF, the protein stability index with Saccharomyces cerevisiae [1] (setting [3]) was determined as 0.653 ± 0.034; in the series on Saccharomyces cerevisiae [1] (setting [4]) it was 0.753 ± 0.008; in the series on Saccharomyces cerevisiae [1] (setting [5]), 0.6272 ± 0.0031; in the series with Saccharomyces cerevisiae [1] (setting [6]), 0.736 ± 0.027; with Saccharomyces cerevisiae [1] (setting [7]), 0.197 ± 0.0028; in the series with Saccharomyces cerevisiae [1] (setting [8]), 0.232 ± 0.018. The protein stability index was 0.473 ± 0.027 in the series on Saccharomyces cerevisiae [1] (setting [9]) and 0.3446 ± 0.0022 in the series on Saccharomyces cerevisiae [2].
APPRLPLLSCSQ: the protein stability index was 0.652 ± 0.021 in the series with Saccharomyces cerevisiae [1] (setting [3]); 0.712 ± 0.0095 in the series on Saccharomyces cerevisiae [1] (setting [4]); 0.661 ± 0.05 in the series on Saccharomyces cerevisiae [1] (setting [5]); 0.6939 ± 0.00016 in the series with Saccharomyces cerevisiae [1] (setting [6]); 0.684 ± 0.045 in the series on Saccharomyces cerevisiae [1] (setting [7]); 0.642 ± 0.044 with Saccharomyces cerevisiae [1] (setting [8]). This sequence also had a protein stability index with Saccharomyces cerevisiae [1] (setting [9]) of 0.699 ± 0.014.
Consider APPSRRLTLRLA, for which the protein stability index worked out at 0.577 ± 0.039 in the series on Saccharomyces cerevisiae [1] (setting [3]); 0.696 ± 0.019 in the series on Saccharomyces cerevisiae [1] (setting [4]); 0.6614 ± 0.0066 with Saccharomyces cerevisiae [1] (setting [5]); 0.709 ± 0.017 in the series with Saccharomyces cerevisiae [1] (setting [6]); 0.142 ± 0.003 with Saccharomyces cerevisiae [1] (setting [7]); 0.145 ± 0.0058 with Saccharomyces cerevisiae [1] (setting [8]). Besides, the protein stability index with Saccharomyces cerevisiae [1] (setting [9]) was determined as 0.32 ± 0.044.
As for CLVISVLFGVVA, the protein stability index amounted to 0.2376 ± 0.00026 with Saccharomyces cerevisiae [1] (setting [3]); 0.269 ± 0.067 with Saccharomyces cerevisiae [1] (setting [4]); 0.218 ± 0.034 with Saccharomyces cerevisiae [1] (setting [5]); 0.382 ± 0.0091 with Saccharomyces cerevisiae [1] (setting [6]); 0.1782 ± 0.0014 in the series with Saccharomyces cerevisiae [1] (setting [7]); 0.21 ± 0.016 with Saccharomyces cerevisiae [1] (setting [8]). This sequence returned a protein stability index with Saccharomyces cerevisiae [1] (setting [9]) of 0.326 ± 0.0065.
Take FLPPVHRCFSIF: the protein stability index in the series with Saccharomyces cerevisiae [1] (setting [3]) was 0.671 ± 0.037; in the series on Saccharomyces cerevisiae [1] (setting [4]), 0.742 ± 0.013; in the series on Saccharomyces cerevisiae [1] (setting [5]), 0.653 ± 0.022; in the series on Saccharomyces cerevisiae [1] (setting [6]), 0.745 ± 0.021; with Saccharomyces cerevisiae [1] (setting [7]) it was 0.172 ± 0.014; in the series with Saccharomyces cerevisiae [1] (setting [8]), 0.193 ± 0.032. This sequence registered a protein stability index with Saccharomyces cerevisiae [1] (setting [9]) of 0.3915 ± 0.0028.
With GFLFVLCAWGFF, the protein stability index came out at 0.178 ± 0.017 in the series with Saccharomyces cerevisiae [1] (setting [3]); 0.321 ± 0.039 in the series on Saccharomyces cerevisiae [1] (setting [4]); 0.227 ± 0.022 in the series with Saccharomyces cerevisiae [1] (setting [5]); 0.386 ± 0.019 in the series with Saccharomyces cerevisiae [1] (setting [6]); 0.21 ± 0.0069 with Saccharomyces cerevisiae [1] (setting [7]); 0.236 ± 0.0048 in the series on Saccharomyces cerevisiae [1] (setting [8]). Moreover, the protein stability index with Saccharomyces cerevisiae [1] (setting [9]) is 0.318 ± 0.0066.
As to GGGWGGRWGRLC, the protein stability index with Saccharomyces cerevisiae [1] (setting [3]) is 0.639 ± 0.047; in the series on Saccharomyces cerevisiae [1] (setting [4]), 0.754 ± 0.0091; in the series with Saccharomyces cerevisiae [1] (setting [5]), 0.6543 ± 0.0029; with Saccharomyces cerevisiae [1] (setting [6]) it was 0.75462 ± 8e-05; in the series on Saccharomyces cerevisiae [1] (setting [7]), 0.193 ± 0.021; with Saccharomyces cerevisiae [1] (setting [8]), 0.218 ± 0.035. Also, the protein stability index in the series on Saccharomyces cerevisiae [1] (setting [9]) worked out at 0.479 ± 0.0076.
Turning to GPPVPLSPPLSP, the protein stability index with Saccharomyces cerevisiae [1] (setting [3]) worked out at 0.701 ± 0.042; in the series on Saccharomyces cerevisiae [1] (setting [4]) it was 0.695 ± 0.045; in the series with Saccharomyces cerevisiae [1] (setting [5]), 0.35 ± 0.024; in the series with Saccharomyces cerevisiae [1] (setting [6]) it was 0.5534 ± 0.0029; in the series on Saccharomyces cerevisiae [1] (setting [7]) it was 0.33 ± 0.0094; with Saccharomyces cerevisiae [1] (setting [8]), 0.341 ± 0.014. The protein stability index in the series on Saccharomyces cerevisiae [1] (setting [9]) came out at 0.532 ± 0.039.
On to KQSGLQIKRRKL, for which the protein stability index in the series on Saccharomyces cerevisiae [1] (setting [3]) worked out at 0.711 ± 0.043; with Saccharomyces cerevisiae [1] (setting [4]), 0.75156 ± 0.00069; with Saccharomyces cerevisiae [1] (setting [5]), 0.617 ± 0.019; in the series with Saccharomyces cerevisiae [1] (setting [6]), 0.7734 ± 0.0051; with Saccharomyces cerevisiae [1] (setting [7]), 0.639 ± 0.07; with Saccharomyces cerevisiae [1] (setting [8]), 0.7 ± 0.056. This sequence also showed a protein stability index in the series on Saccharomyces cerevisiae [1] (setting [9]) of 0.763 ± 0.061.
With LVCSLLVPSSFF, the protein stability index in the series on Saccharomyces cerevisiae [1] (setting [3]) turned out to be 0.679 ± 0.0081; with Saccharomyces cerevisiae [1] (setting [4]), 0.7 ± 0.074; in the series on Saccharomyces cerevisiae [1] (setting [5]) it was 0.634 ± 0.016; in the series on Saccharomyces cerevisiae [1] (setting [6]) it was 0.722 ± 0.0063; in the series on Saccharomyces cerevisiae [1] (setting [7]), 0.667 ± 0.035; in the series with Saccharomyces cerevisiae [1] (setting [8]), 0.645 ± 0.011. Moreover, the protein stability index with Saccharomyces cerevisiae [1] (setting [9]) amounted to 0.7039 ± 0.0056.
PPPPPPPAPASP: the protein stability index is 0.665 ± 0.13 in the series on Saccharomyces cerevisiae [1] (setting [5]); 0.68 ± 0.048 in the series with Saccharomyces cerevisiae [1] (setting [6]); 0.553 ± 0.17 in the series with Saccharomyces cerevisiae [1] (setting [7]); 0.635 ± 0.089 in the series on Saccharomyces cerevisiae [1] (setting [8]); 0.629 ± 0.032 in the series on Saccharomyces cerevisiae [1] (setting [9]).
Take QRAVGLANFTIK: the protein stability index in the series with Saccharomyces cerevisiae [1] (setting [3]) was found to be 0.672 ± 0.065; in the series on Saccharomyces cerevisiae [1] (setting [4]) it was 0.7512 ± 0.0062; in the series on Saccharomyces cerevisiae [1] (setting [5]) it was 0.647 ± 0.043; in the series on Saccharomyces cerevisiae [1] (setting [6]), 0.7328 ± 0.0028; with Saccharomyces cerevisiae [1] (setting [7]), 0.646 ± 0.048; in the series on Saccharomyces cerevisiae [1] (setting [8]), 0.669 ± 0.032. This sequence also showed a protein stability index in the series with Saccharomyces cerevisiae [1] (setting [9]) of 0.709 ± 0.018.
RPPPYSPRLFHN: the protein stability index is 0.469 ± 0.0049 in the series with Saccharomyces cerevisiae [1] (setting [3]); 0.706 ± 0.031 with Saccharomyces cerevisiae [1] (setting [4]); 0.67 ± 0.031 in the series on Saccharomyces cerevisiae [1] (setting [5]); 0.75 ± 0.01 in the series with Saccharomyces cerevisiae [1] (setting [6]); 0.0941 ± 0.065 in the series on Saccharomyces cerevisiae [1] (setting [7]); 0.129 ± 0.023 with Saccharomyces cerevisiae [1] (setting [8]). Moreover, the protein stability index in the series with Saccharomyces cerevisiae [1] (setting [9]) amounted to 0.179 ± 0.067.
With RSRNSEYILVYN, the protein stability index is 0.655 ± 0.018 with Saccharomyces cerevisiae [1] (setting [3]); 0.672 ± 0.039 in the series with Saccharomyces cerevisiae [1] (setting [4]); 0.397 ± 0.045 with Saccharomyces cerevisiae [1] (setting [5]); 0.6343 ± 0.0031 in the series with Saccharomyces cerevisiae [1] (setting [6]); 0.318 ± 0.012 in the series on Saccharomyces cerevisiae [1] (setting [7]); 0.391 ± 0.014 in the series on Saccharomyces cerevisiae [1] (setting [8]). Besides, the protein stability index in the series on Saccharomyces cerevisiae [1] (setting [9]) stood at 0.66 ± 0.025.
For TGGGGRVSLGGG, the protein stability index in the series with Saccharomyces cerevisiae [1] (setting [3]) is 0.337 ± 0.053; with Saccharomyces cerevisiae [1] (setting [4]) it was 0.427 ± 0.032; in the series on Saccharomyces cerevisiae [1] (setting [5]), 0.384 ± 0.021; with Saccharomyces cerevisiae [1] (setting [6]), 0.44 ± 0.022; in the series with Saccharomyces cerevisiae [1] (setting [7]) it was 0.374 ± 0.013; in the series on Saccharomyces cerevisiae [1] (setting [8]) it was 0.372 ± 0.0084. Also, the protein stability index in the series on Saccharomyces cerevisiae [1] (setting [9]) was 0.416 ± 0.044.
As for VFYWGGVLCGWG, the protein stability index is 0.337 ± 0.035 in the series on Saccharomyces cerevisiae [1] (setting [3]); 0.502 ± 0.074 with Saccharomyces cerevisiae [1] (setting [4]); 0.309 ± 0.03 in the series with Saccharomyces cerevisiae [1] (setting [5]); 0.514 ± 0.014 in the series on Saccharomyces cerevisiae [1] (setting [6]); 0.297 ± 0.019 in the series on Saccharomyces cerevisiae [1] (setting [7]); 0.326 ± 0.036 in the series with Saccharomyces cerevisiae [1] (setting [8]). The same sequence displayed a protein stability index in the series with Saccharomyces cerevisiae [1] (setting [9]) of 0.439 ± 0.027.
WGYWGGVMGLEE gave a protein stability index in the series on Saccharomyces cerevisiae [2] of 0.738 ± 0.043.
WHDLDRGSFRAV gave a protein stability index in the series with Saccharomyces cerevisiae [2] of 0.669 ± 0.023.
Still for that read-out and setting: the value for WITAYFPLHSSE was 0.714 ± 0.036.
